Test results from paper PMC10776994, “The SDS22:PP1:I3 complex: SDS22 binding to PP1 loosens the active site metal to prime metal exchange” (The Journal of Biological Chemistry, 2023).

B1: I3_(27-59) (Δ60–68) (domain or fragment, human, UniProt O60927 27-59, looked up)
chain: SLTIKLRKRKPEKKVEWTSDTVDNEHMGRRSSK
notes: made by a stop codon in the I3 27-68 construct; lacks the CCC motif; also called I3_(ΔCCC); CCC_(deletion); source: E. coli BL21 (DE3), purified (Ni-NTA, TEV, heat 95 °C, SEC); not shown: His6, N-terminal, cleaved; MBP, N-terminal, cleaved
B2: I3_(27-68) (domain or fragment, human, UniProt O60927 27-68, looked up)
chain: SLTIKLRKRKPEKKVEWTSDTVDNEHMGRRSSKCCCIYEKPR
notes: source: E. coli BL21 (DE3), purified (Ni-NTA, TEV, heat 95 °C, SEC); not shown: His6, N-terminal, cleaved; MBP, N-terminal, cleaved
B3: I3_(27-68) C60S/C61S/C62S (domain or fragment, human, UniProt O60927 27-68, looked up)
chain: SLTIKLRKRKPEKKVEWTSDTVDNEHMGRRSSKSSSIYEKPR
notes: also called I3_(27-68) SSS; SSS: I3_(27-68) CCC→SSS; source: E. coli BL21 (DE3), purified (Ni-NTA, TEV, heat 95 °C, SEC); not shown: His6, N-terminal, cleaved; MBP, N-terminal, cleaved

Key:
Conditions in all cases: both partners purified
[1] = target: T1, SDS22_(56-360):PP1α_(7-330) complex (UniProt Q15435 56-360; P62136 7-330); assay: SPR; His6-PP1 constructs or SDS22_(56-360):PP1α_(7-330) captured on a Ni-NTA chip (NiHC200M), I3 and variants injected; 25 °C; 20 mM Tris pH 8.0, 500 mM NaCl, 0.5 mM TCEP, 0.05% Tween-20; one-to-one one-state or two-state fit
T1 construct: SDS22 (PPP1R7), residues 56-360; Protein phosphatase 1 alpha catalytic subunit (PP1α), residues 7-330; PP1 in this complex lacks the M1 metal; The same complex treated with EDTA (M2 metal extracted) is kept as this molecule and told apart by assay a4; the His6 tag of SDS22 was cleaved, so it is probably His6-PP1; also called SDS22:PP1; SDS22:PP1_(M2-metal-free) / metal-free …
T1 sequence (Q15435 56-360, chain 1 of 2): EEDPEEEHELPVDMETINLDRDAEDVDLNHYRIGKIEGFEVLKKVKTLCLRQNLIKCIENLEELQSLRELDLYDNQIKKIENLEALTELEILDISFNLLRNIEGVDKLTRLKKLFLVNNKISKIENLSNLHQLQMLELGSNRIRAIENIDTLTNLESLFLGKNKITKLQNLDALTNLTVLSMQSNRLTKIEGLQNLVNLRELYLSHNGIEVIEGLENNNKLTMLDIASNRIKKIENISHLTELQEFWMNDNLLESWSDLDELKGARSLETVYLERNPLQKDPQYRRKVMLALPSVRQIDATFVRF
T1 sequence (P62136 7-330, chain 2 of 2): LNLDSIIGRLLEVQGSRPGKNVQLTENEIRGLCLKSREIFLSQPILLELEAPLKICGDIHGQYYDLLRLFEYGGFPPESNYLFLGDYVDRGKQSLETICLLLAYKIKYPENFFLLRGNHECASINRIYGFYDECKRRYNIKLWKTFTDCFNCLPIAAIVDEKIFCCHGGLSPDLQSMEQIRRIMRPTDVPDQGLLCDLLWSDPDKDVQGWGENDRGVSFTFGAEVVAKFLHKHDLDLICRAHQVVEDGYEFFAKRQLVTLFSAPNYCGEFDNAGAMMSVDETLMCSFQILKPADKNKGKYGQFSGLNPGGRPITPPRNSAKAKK

[2] = target: T1, SDS22_(56-360):PP1α_(7-330) complex; assay: SPR; as a3, but SDS22_(56-360):PP1α_(7-330) treated with 3 mM EDTA beforehand and dialysed to extract the M2 metal (metal-free PP1); one-state fit
PP1α_(7-330) R96A/H66K = target: T2, PP1α_(7-330) R96A/H66K (UniProt P62136 7-330, R96A | H66K); assay: SPR; His6-PP1 constructs or SDS22_(56-360):PP1α_(7-330) captured on a Ni-NTA chip (NiHC200M), I3 and variants injected; 25 °C; 20 mM Tris pH 8.0, 500 mM NaCl, 0.5 mM TCEP, 0.05% Tween-20; one-to-one one-state or two-state fit
T2 construct: Protein phosphatase 1 alpha catalytic subunit (PP1α), residues 7-330; also called PP1_(7-330) R96A/H66K
T2 sequence (P62136 7-330 H66K/R96A): as the sequence (P62136 7-330, chain 2 of 2) above, with H60K, R90A counted along it

PP1α_(7-330) R96A = target: T3, PP1α_(7-330) R96A (UniProt P62136 7-330, R96A); assay: as above
T3 construct: Protein phosphatase 1 alpha catalytic subunit (PP1α), residues 7-330; also called PP1_(R96A); PP1_(7-330) R96A
T3 sequence (P62136 7-330 R96A): as the sequence (P62136 7-330, chain 2 of 2) above, with R90A counted along it

PP1α_(7-330) Y134A = target: T4, PP1α_(7-330) Y134A (UniProt P62136 7-330, Y134A); assay: as above
T4 construct: Protein phosphatase 1 alpha catalytic subunit (PP1α), residues 7-330; also called PP1_(Y134A); PP1_(7-330) Y134A
T4 sequence (P62136 7-330 Y134A): as the sequence (P62136 7-330, chain 2 of 2) above, with Y128A counted along it

PP1α_(7-330) Y134A/H66K = target: T5, PP1α_(7-330) Y134A/H66K (UniProt P62136 7-330, Y134A | H66K); assay: as above
T5 construct: Protein phosphatase 1 alpha catalytic subunit (PP1α), residues 7-330; also called PP1_(7-330) Y134A/H66K
T5 sequence (P62136 7-330 H66K/Y134A): as the sequence (P62136 7-330, chain 2 of 2) above, with H60K, Y128A counted along it

| Binder | Kd [1] | Kd [2] | Kd (PP1α_(7-330) R96A/H66K) | Kd (PP1α_(7-330) R96A) | Kd (PP1α_(7-330) Y134A) | Kd (PP1α_(7-330) Y134A/H66K) |
| --- | --- | --- | --- | --- | --- | --- |
| B1 | 396 ± 11 nM | – | – | – | – | – |
| B2 | 116 ± 12 nM | 605 ± 32 nM | 7 ± 1 nM | 12 ± 1 nM | 9 ± 2 nM | 12 ± 3 nM |
| B3 | 429 ± 30 nM | – | – | – | – | – |
